Assay results reported in article PMC12591035, “Bni5 regulates and coordinates septin architecture and myosin-II functions at the cell division site” (The Journal of Cell Biology, 2025).
One block for each binder: values may come before it.

Columns and labels:
Settings in all cases: both partners purified
[1] = target: T1, 5-septin complexes/filaments (a mixture of Cdc11-Cdc12[His6]-Cdc3-Cdc10-Cdc10-Cdc3-Cdc12[His6]-Cdc11 and … (S. cerevisiae, UniProt P32458 1-415; Q07657 1-551; P32468 1-407; P32457 1-520; P25342 1-322); test: co-sedimentation; 1.5 μg eluted GST fusion with 1.5 μg concentrated 4-septin or 5-septin complexes/filaments; 50 mM NaCl, 2 mM MgCl2, 15 mM imidazole, 12% glycerol, 50 mM Tris-HCl pH 7.5; 1 h at room temperature; 100,000 x g for 1 h at 4°C; pellet on Coomassie gel and anti-GST blot
T1 construct: Cdc11, S. cerevisiae septin, terminal subunit of the Cdc11-capped octamers; Shs1, S. cerevisiae septin, terminal subunit of the Shs1-capped octamers; Cdc12, S. cerevisiae septin; Cdc3, S. cerevisiae septin; Cdc10, S. cerevisiae septin, core subunit; A mixture of two kinds of octamer, each capped by two copies of either Cdc11 or Shs1; polymerised into filaments; also called septin filaments made …

[2] = target: T2, 4-septin complexes/filaments (Cdc11-Cdc12[His6]-Cdc3-Cdc10-Cdc10-Cdc3-Cdc12[His6]-Cdc11) (S. cerevisiae, UniProt P32458 1-415; P32468 1-407; P32457 1-520; P25342 1-322); test: as above
T2 construct: Cdc11, S. cerevisiae septin, terminal subunit of the octamer; Cdc12, S. cerevisiae septin; Cdc3, S. cerevisiae septin; Cdc10, S. cerevisiae septin, core subunit; Octamers polymerised into filaments; copies are those of one octamer; The plasmids are from Versele et al., 2004; also called septin filaments made of Cdc11-capped octamers (four septins); four-septin complexes; source: E. coli …
T2 sequence (P32458 whole entry, chain 1 of 4): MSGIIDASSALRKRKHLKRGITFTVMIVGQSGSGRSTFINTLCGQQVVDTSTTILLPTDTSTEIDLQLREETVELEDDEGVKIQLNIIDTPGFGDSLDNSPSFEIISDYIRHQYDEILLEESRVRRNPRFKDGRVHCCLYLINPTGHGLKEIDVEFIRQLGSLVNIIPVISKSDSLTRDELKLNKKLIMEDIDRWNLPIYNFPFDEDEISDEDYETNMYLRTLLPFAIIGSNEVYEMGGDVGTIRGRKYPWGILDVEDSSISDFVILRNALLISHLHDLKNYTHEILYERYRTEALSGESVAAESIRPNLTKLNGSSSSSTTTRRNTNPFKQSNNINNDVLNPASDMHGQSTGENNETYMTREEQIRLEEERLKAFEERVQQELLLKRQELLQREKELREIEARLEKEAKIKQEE
T2 sequence (P32468 whole entry, chain 2 of 4): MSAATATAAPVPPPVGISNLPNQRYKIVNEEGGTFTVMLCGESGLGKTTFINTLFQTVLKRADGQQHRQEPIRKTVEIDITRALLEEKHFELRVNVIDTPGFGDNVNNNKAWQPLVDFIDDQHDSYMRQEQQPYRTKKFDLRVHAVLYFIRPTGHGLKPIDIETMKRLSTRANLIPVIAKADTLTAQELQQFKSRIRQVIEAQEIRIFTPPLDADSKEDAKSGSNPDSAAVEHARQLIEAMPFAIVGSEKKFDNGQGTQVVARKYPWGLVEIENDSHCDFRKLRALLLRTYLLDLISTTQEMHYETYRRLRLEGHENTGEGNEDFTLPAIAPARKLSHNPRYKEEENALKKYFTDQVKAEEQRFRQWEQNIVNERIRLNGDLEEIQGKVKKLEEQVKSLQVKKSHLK
T2 sequence (P32457 whole entry, chain 3 of 4): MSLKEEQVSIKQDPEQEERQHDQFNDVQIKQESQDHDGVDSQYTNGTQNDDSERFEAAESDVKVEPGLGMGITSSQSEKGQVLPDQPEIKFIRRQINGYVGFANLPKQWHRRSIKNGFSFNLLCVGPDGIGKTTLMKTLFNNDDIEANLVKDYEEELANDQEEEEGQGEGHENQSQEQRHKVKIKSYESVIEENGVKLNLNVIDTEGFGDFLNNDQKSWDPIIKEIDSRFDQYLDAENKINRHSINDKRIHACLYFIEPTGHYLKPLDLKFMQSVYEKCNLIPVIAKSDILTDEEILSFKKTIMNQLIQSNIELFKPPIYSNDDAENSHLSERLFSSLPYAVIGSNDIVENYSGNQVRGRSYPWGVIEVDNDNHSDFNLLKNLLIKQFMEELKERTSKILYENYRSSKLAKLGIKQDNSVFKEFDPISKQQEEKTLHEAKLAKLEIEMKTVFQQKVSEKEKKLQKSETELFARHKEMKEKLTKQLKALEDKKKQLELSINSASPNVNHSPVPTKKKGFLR
T2 sequence (P25342 whole entry, chain 4 of 4): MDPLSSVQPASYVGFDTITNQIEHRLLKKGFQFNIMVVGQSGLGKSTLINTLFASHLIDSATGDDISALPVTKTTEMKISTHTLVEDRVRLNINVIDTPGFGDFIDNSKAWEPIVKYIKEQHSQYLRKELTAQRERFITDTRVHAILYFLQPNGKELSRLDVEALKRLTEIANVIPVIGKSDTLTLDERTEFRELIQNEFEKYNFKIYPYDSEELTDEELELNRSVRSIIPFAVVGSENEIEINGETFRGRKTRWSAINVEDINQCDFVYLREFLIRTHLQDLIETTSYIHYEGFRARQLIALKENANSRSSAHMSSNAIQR

His-SUMO-Elm1(421-640) = target: T3, His-SUMO-Elm1(421-640) (S. cerevisiae, UniProt P32801 421-640); test: pull-down; 3.5 μg GST fusion on glutathione resin with 3.5 μg His6-Sumo-Elm1-C or MBP-Myo1-mTD1; 20 mM MOPS pH 7.0, 1 mM EGTA, 150 mM NaCl, 1 mM DTT, 0.1% NP-40; 1 h; five washes; Coomassie gel and anti-6xHis or anti-MBP blot
T3 construct: Elm1 kinase, S. cerevisiae, residues 421-640 (C-terminal non-kinase domain); Cloned into pET-His6-Sumo-TEV-LIC (Addgene #29659); also called His6-Sumo-Elm1-C; pET-His6-Sumo-Elm1(421-640); source: E. coli Rosetta DE3, purified (His-tag resin, eluted with imidazole); not shown: His6, N-terminal, kept; SUMO, N-terminal, kept
T3 sequence (looked up): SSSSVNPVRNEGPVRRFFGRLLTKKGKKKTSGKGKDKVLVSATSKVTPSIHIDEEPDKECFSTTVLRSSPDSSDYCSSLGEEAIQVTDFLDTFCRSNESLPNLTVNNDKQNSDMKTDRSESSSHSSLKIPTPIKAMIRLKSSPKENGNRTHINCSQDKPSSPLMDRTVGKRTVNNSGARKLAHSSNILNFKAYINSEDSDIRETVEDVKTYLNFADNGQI

binding result [1]: binds
binding result [2]: binds
B1: GST-Bni5-Ext-HR2-HR3 (GST-Bni5(306-448)) (domain or fragment, S. cerevisiae, UniProt P53890 306-448, looked up)
chain: QKKMANFETRRPTNPFRVISVSSNSNSRNGSRKSSLNKYDSPVSSPITSASELGSIAKLEKRHDYLSMKCIKLQKEIDYLNKMNAQGSLSMEDGKRLHRAVVKLQEYLDKKTKEKYEVGVLLSRHLRKQIDRGENGQFWIGTK
notes: Bni5, S. cerevisiae, residues 306-448 (Ext, HR2 and HR3); also called GST-Ext-HR2-HR3; pGEX-4T-1-Bni5(306-448); source: E. coli Rosetta DE3, purified (Glutathione Sepharose 4B); kept on the resin for pull-downs, eluted with glutathione for the septin filament assay; not shown: GST, N-terminal, kept
binding result (His-SUMO-Elm1(421-640)): binds

binding result [1]: binds
binding result [2]: binds
B2: GST-Bni5-Ext-HR2 (GST-Bni5(306-393)) (domain or fragment, S. cerevisiae, UniProt P53890 306-393, looked up)
chain: QKKMANFETRRPTNPFRVISVSSNSNSRNGSRKSSLNKYDSPVSSPITSASELGSIAKLEKRHDYLSMKCIKLQKEIDYLNKMNAQGS
notes: Bni5, S. cerevisiae, residues 306-393 (Ext plus helical region HR2); also called GST-Ext-HR2; pGEX-4T-1-Bni5(306-393); source: E. coli Rosetta DE3, purified (Glutathione Sepharose 4B); kept on the resin for pull-downs, eluted with glutathione for the septin filament assay; not shown: GST, N-terminal, kept
